{"source": "paper PMC2645956", "biological_target": "Paracoccus denitrificans soluble cytochrome c552 fragment, wild-type (unlabeled) (Paracoccus denitrificans) (UniProt P54820)", "sequence (P54820 78-176)": "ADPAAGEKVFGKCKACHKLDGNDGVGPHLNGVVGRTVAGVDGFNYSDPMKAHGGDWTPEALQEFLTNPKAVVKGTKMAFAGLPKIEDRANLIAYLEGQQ", "data": [{"substance": "Paracoccus denitrificans soluble cytochrome c1 core fragment, wild-type (domain or fragment)", "values": [{"measurement": "Brønsted parameter ZAZB of the ionic strength dependence of k12, stopped-flow", "result": -4}]}]}
